Measured values: the supplement of paper PMC10567573

B1: TMEM192 (parent)
chain: ILGKVILWILHLLLECYIQYHHSK
B2: OAS1 (parent)
chain: TPAKSLDKFIEDYLLPDTCFRMQI

Variants of: B1
Assay: protein stability index of a GFP-peptide fusion (GPS, HEK-293T) (PSI 1-6); higher = more stable
Conditions: c terminus: a fixed tail appended
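Further: lentivirally expressed fusions sorted by FACS into six bins by GFP to DsRed ratio, PSI derived from sequencing read proportions per bin multiplied by bin number.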

Protein stability index, by site and new letter:
H22: Y 3.11, C 1.54, I 2.33, L 1.94, E 2.6, S 3.42, K 3.66, G 2.63, M 1.96, F 2.56, P 2.33, V 2.95, A 2.94, T 2.36, W 3.65, D 3.4
C16: P 2.88, F 2.6, Y 3.21, S 5.42, D 2.6, K 3.66, W 2.31, Q 2.86, M 3.3, T 3.84, G 3.5, A 3.38, N 3.32, I 2.95, E 2.48
L12: V 2.88, F 2.47, K 2.69, H 2.19, P 3.07, W 3.59, M 2.29, R 2.87, S 3.61, T 3.88, Q 4.15, N 3.52, D 3.31, G 3.98, A 3, Y 2.14, E 3.21
Y20: P 3.57, N 2.5, E 3.48, T 4.2, S 3.62, V 3.38, R 1.94, H 1.97, L 3.1, D 2.2, C 3.13, G 2.11, W 2.22, Q 4.39, K 2.51, M 3.73, A 2.9, F 1.26
H11: Y 2.56
Q19: Y 3.49, V 3.16, T 2.57, P 2.26, C 3.13, K 2.25, M 2.97, D 3.64, N 2.91, F 2.49, L 4.51, W 2.36, E 3.03, A 2.58, H 2.44, G 3.15, R 2.9, I 2.76
K24: D 2.86, L 2.65, E 3.43, M 3.05, V 2.48, N 3.06, A 2.69, H 2.07, W 3.65, G 3.14, F 3.92, T 3.66, I 2.38, C 2.89, R 3.46, P 3
L13: S 2.98, W 2.21, N 3.18, T 2.88, D 2.47, R 2.37, Q 2.11, M 3.1, P 3.39, G 2.25, I 2.04, K 2.9, F 2.5, Y 2.97, H 2.83, C 2.76, V 2.8, A 3.26
I18: K 3.4, C 2.4, S 2.74, W 3.7, L 3.64, E 2.99, F 3.01, G 2.71, Q 3.46, Y 2.24, M 2.03, V 3.96, A 4.65, H 2.59, D 2.61, T 2.31, P 2.44, N 1.48, R 2.36
E15: L 3.05, Y 2.69, C 2.82, H 3.19, D 2.1, T 2.4, P 3.23, I 3.52, A 3.03, F 2.44, N 3.35, V 3.17, M 2.76, S 2.14, K 2.68, Q 3.19, G 2.81
H21: T 2.54, M 2.86, F 3.45, P 2.65, S 2.67, D 4.02, N 1.95, W 2.55, L 2.36, I 3.57, G 3.35, R 1.92, V 3.35, Y 4.47, E 3, K 3.49
L14: Q 2.28, S 2.43, E 3.72, Y 3.51, D 3.16, T 3.98, W 1.68, C 2.25, H 3.19, F 2.75, G 3.05, I 3.72, M 2.95, V 4.41, R 2.71, A 2.08, K 2.31, P 3.38, N 3.68
Y17: G 3.49, T 1.81, W 3.9, I 3.59, L 2.59, P 3.26, S 3.71, M 2.85, E 3.46, D 2.2, C 2.8, Q 2.67, K 2.99, A 2.48, F 3.16, R 2.2, N 3.47, H 3.22
S23: F 2.9, K 2.82, E 2.49, A 2.08, Q 2.32, G 3.2, M 2.49, D 2.57, P 1.54, Y 2.72, N 4.27, W 3.3, L 3.84, V 4.52, I 2.68, R 3.3

Variants of: B2
Assay: as above
Conditions: c terminus: a fixed tail appended

Protein stability index of substitutions, site by site:
T1: I 2.59, V 1.06, W 2.39, N 3.42, K 2.84, M 1.9, Y 2.84, A 2.48, L 3.21, P 2.51, G 3.6, R 4.07, H 3.45, D 1.82, C 2.39, Q 2.42, E 1.7, S 2.13
P2: G 3.49, M 3.28, R 2.81, L 2.82, W 3.86, V 1.74, H 3.76, I 2.16, F 3.08, D 1.92, Q 2.97, T 2.82, N 3.68, S 1.69, C 3.55
S5: F 1.63, T 2.86, W 1.99, D 2.02, M 2.42, N 2.78, V 3.06, C 2.19, A 2.52, Q 2.4, Y 2.89, E 1.74, H 1.69, R 3.08, L 3.15, I 2.43, K 2.14
L6: E 1.49, F 4.79, H 2.66, R 2.55, W 2.19, D 1.38, C 2.68, Y 3, M 2.18, Q 2.47, N 2.45, K 1.61, V 1.97, I 3.63, P 2.43, S 1.94, A 2.89, T 3.08
K4: I 1.9, F 2.9, W 3.85, N 2.52, D 2.19, P 2.13, M 1.67, C 2.29, S 2.24, H 2.59, T 2.48, L 2.23
D7: M 2.87, C 2.77, H 3.9, I 2.96, R 2.9, P 1.73, K 2.05, Q 2.94, N 2.1, L 2.42, A 2.77
A3: C 3.23, G 3.77, W 2.58, H 2.99, M 2.11, D 1.54, P 2.49, I 3.83, N 2.47, K 2.57, E 2.88, S 2.42, V 3.63, T 1.64, L 2.85, R 2.23, Q 2.56, F 3.88, Y 1.96
